# Test results taken from patent US6649593B1, “Modulators of SREBP processing” (priority 1999, dated 2003).
# Read-outs that look alike come from different tables or passages of the source. Non-standard residues stand in square brackets, D forms with d. Residues, ends and D or L forms follow the SMILES beside them. *: point of attachment. Sta = CC(C)C[C@H](N)[C@@H](O)CC(=O)O; Isovaleryl = CC(C)CC(=O)*
# Columns and labels:
# purified S1P(187-983) = target: T1, purified S1P(187-983) (Cricetulus griseus, UniProt Q9Z2A8); format: biochemical, hamster; settings: for inhibition of S1P at extremely high concentrations: extremely high concentrations of inhibitor; for Relative Activity (comparative cleavage of fluorogenic synthetic peptidyl substrates): cleavage by purified S1P-C(187-983), MCA-peptide 100 μM, pH 8.0, 37° C.
# T1 construct: 1.5-5 μg of purified S1P(187-983); made in house; host or cells: SRD-12B cells (CHO-derived) stably transfected with pCMV-S1P(983)-Myc-His (TR-3117, 'S1P(983) cells'); The protein was secreted into serum-free medium and purified on Ni-NTA agarose
# T1 sequence (Q9Z2A8 187-983): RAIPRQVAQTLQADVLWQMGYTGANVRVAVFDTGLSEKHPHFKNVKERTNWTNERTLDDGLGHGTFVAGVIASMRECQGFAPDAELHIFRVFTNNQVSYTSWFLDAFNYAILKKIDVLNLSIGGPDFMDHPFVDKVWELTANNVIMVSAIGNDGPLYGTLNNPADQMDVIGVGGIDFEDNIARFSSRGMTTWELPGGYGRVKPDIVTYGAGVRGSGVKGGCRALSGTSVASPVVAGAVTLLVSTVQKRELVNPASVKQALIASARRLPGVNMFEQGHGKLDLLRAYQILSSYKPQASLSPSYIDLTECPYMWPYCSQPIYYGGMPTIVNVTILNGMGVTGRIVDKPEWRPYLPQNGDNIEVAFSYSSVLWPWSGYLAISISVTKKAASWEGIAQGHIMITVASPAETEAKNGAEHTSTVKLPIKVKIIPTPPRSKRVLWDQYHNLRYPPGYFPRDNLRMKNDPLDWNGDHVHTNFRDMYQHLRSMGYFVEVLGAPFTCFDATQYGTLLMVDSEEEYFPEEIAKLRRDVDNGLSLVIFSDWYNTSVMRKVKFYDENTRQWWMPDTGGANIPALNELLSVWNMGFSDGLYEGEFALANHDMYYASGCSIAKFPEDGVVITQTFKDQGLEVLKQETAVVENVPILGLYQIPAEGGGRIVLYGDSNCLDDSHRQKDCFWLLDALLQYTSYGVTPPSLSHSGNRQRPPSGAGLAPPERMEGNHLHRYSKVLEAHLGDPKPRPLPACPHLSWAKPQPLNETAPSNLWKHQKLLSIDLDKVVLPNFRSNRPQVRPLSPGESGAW
# Protocol: Stock cultures of S1P(983) cells were grown in 850-cm^2 roller bottles in medium B supplemented with 5% (v/v) newborn calf lipoprotein-deficient serum and 500 μg/mL G418. On day 0, 10 roller bottles of S1P(983) cells were seeded at a density of ˜4×10^7 cells/roller bottles. On day 2, the medium was replaced with 100 mL of serum-free medium CHO-S-SFMII. The medium from each roller bottle was collected daily from day 3 to day 7. The collected medium was pooled, filtered through 0.45-μm cellulose acetate low-protein binding membrane filter units (Corning Costar) and stored at 4° C. for 0 to 4 days. On day 7, the filtered medium was adjusted to pH 8.0 by addition of tris-HCl at a final concentration of 25 mM, and then loaded onto four parallel 5-mL Ni-NTA agarose columns (Qiagen, Inc., Chatsworth, Calif.) equilibrated with 20 mL of buffer B (25 mM tris-HCl at pH 8.0, 10% (v/v) glycerol, 1 mM CaCl2). The chromatography was performed at 4° C. via gravity at ˜100 mL/hr. The column was washed with 40 mL of buffer B supplemented with 1M NaCl followed by 20 mL of buffer B without NaCl. […] The eluate was concentrated with a Centriprep 30 filter followed by a Centricon 30 filter (Amicon, Inc.).
# S1P activity was measured fluorometrically with MCA-conjugated peptidyl substrates. Each reaction was carried out in 0.2 mL of assay buffer (25 mM tris, 25 mM Mes, 25 mM acetic acid, and 1 mM CaCl2 adjusted to pH 8.0 with concentrated NaOH). Reactions contained MCA-peptide (final concentration 100 μM, added in 2 μl DMSO) and 1.5-5 μg of purified S1P(187-983). After incubation for 0.5-5 h at 37° C., each reaction was terminated by addition of 1 mL of ice-cold 5 mM sodium EDTA. The liberated 7-amino-4-methylcoumarin (AMC) was measured with a Perkin-Elmer LS-30 luminescence spectrometer (360 nm excitation, 460 nm emission). A standard curve of fluorescence intensity was generated with different concentrations of AMC (Promega).
# [1] = tested on: T2, Ac-Ser-Gly-Arg-Ser-Val-Leu-MCA
# T2 sequence: XGRSVX
# [2] = tested on: T3, Ac-Val-Phe-Arg-Ser-Leu-Lys-MCA
# T3 sequence: XFRSLX
# Ac-Arg-Ser-Leu-Lys-MCA = tested on: T4, Ac-Arg-Ser-Leu-Lys-MCA
# T4 sequence: XSLX
# [3] = tested on: T5, Ac-Val-Phe-Arg-Ser-Arg-Arg-MCA
# T5 sequence: XFRSRX
# Ac-Arg-Ser-Val-Leu-MCA = tested on: T6, Ac-Arg-Ser-Val-Leu-MCA
# T6 sequence: XSVX
# [4] = tested on: T7, Ac-Val-Phe-Ala-Ser-Leu-Lys-MCA
# T7 sequence: XFASLX
# Boc-Arg-Val-Arg-Arg-MCA = tested on: T8, Boc-Arg-Val-Arg-Arg-MCA
# T8 sequence: XVRX
# [5] = tested on: T9, Ac-Ser-Gly-Ser-Gly-Arg-Ser-Val-Leu-MCA
# T9 sequence: XGSGRSVX
# [6] = incubated with substrate Ac-VFRSLK-MCA
Compound,inhibition of S1P (purified S1P(187-983); [6]),Relative Activity (comparative cleavage of fluorogenic synthetic peptidyl substrates) (purified S1P(187-983)),further results
O[C@H](CS)[C@H](O)CS (racemic) [dithiothreitol],,,inhibition of S1P at extremely high concentrations (purified S1P(187-983); [6]): also inhibited S1P
"c1cnc2c(c1)ccc1cccnc12 [1,10-phenanthroline]",,,inhibition of S1P at extremely high concentrations (purified S1P(187-983); [6]): also inhibited S1P
"N=C(N)c1ccc(CS(=O)(=O)F)cc1 [APMSF, (4-amindinophenyl)-methanesulfonyl fluoride]",not significantly inhibited,,
O=C(O)CN(CCN(CC(=O)O)CC(=O)O)CC(=O)O [EDTA],,,inhibition of S1P (purified S1P(187-983)): partially inhibited
O=C(O)CN(CCOCCOCCN(CC(=O)O)CC(=O)O)CC(=O)O [EGTA],,,inhibition of S1P at extremely high concentrations (purified S1P(187-983); [6]): also inhibited S1P
"O=S(=O)(F)Cc1ccccc1 [PMSF, phenylmethylsulfonyl fluoride]",not significantly inhibited,,
Cl.NCCc1ccc(S(=O)(=O)F)cc1 [Pefabloc®],,,"inhibition of S1P at high concentrations (purified S1P(187-983); incubated with substrate Ac-VFRSLK-MCA, high concentrations of inhibitor): did inhibit S1P"
CC(=O)N[C@@H](CC(C)C)C(=O)N[C@@H](CC(C)C)C(=O)N[C@H](C=O)CCCNC(=N)N [leupeptin],resistant,,
CC(C)CC(=O)N[C@H](C(=O)N[C@H](C(=O)N[C@@H](CC(C)C)[C@@H](O)CC(=O)N[C@@H](C)C(=O)N[C@@H](CC(C)C)[C@@H](O)CC(=O)O)C(C)C)C(C)C [pepstatin] (Isovaleryl-VV[Sta]A[Sta]-OH),resistant,,
"Ac-Arg-Ser-Leu-Lys-MCA [Ac-RSLK-MCA, fluorogenic MCA-conjugated peptidyl substrate]",,0.47,
"Ac-Arg-Ser-Val-Leu-MCA [Ac-RSVL-MCA, fluorogenic MCA-conjugated peptidyl substrate]",,<0.1,
"Ac-Ser-Gly-Arg-Ser-Val-Leu-MCA [Ac-SGRSVL-MCA, fluorogenic MCA-conjugated peptidyl substrate]",,<0.1,
"Ac-Ser-Gly-Ser-Gly-Arg-Ser-Val-Leu-MCA [Ac-SGSGRSVL-MCA, fluorogenic MCA-conjugated peptidyl substrate]",,<0.1,
"Ac-Val-Phe-Ala-Ser-Leu-Lys-MCA [Ac-VFASLK-MCA, fluorogenic MCA-conjugated peptidyl substrate]",,<0.1,
"Ac-Val-Phe-Arg-Ser-Arg-Arg-MCA [Ac-VFRSRR-MCA, fluorogenic MCA-conjugated peptidyl substrate]",,<0.1,
"Ac-Val-Phe-Arg-Ser-Leu-Lys-MCA [Ac-VFRSLK-MCA, fluorogenic MCA-conjugated peptidyl substrate]",,1.0,
"Boc-Arg-Val-Arg-Arg-MCA [Boc-RVRR-MCA, fluorogenic MCA-conjugated peptidyl substrate]",,<0.1,
N-acetyl-leucinal-leucinal-norleucinal [ALLN],resistant,,
aprotinin,resistant,,
"purified S1P(187-983), secreted form from S1P(983)-Myc-His cells (hamster Site-1 protease)",,,"Relative Activity (cleavage of fluorogenic MCA substrate, release of AMC) (relative activity) [1]: < 0.1; Relative Activity (cleavage of fluorogenic MCA substrate, release of AMC) (relative activity) [2]: 1; Relative Activity (cleavage of fluorogenic MCA substrate, release of AMC) (relative activity) (Ac-Arg-Ser-Leu-Lys-MCA): 0.47; Relative Activity (cleavage of fluorogenic MCA substrate, release of AMC) (relative activity) [3]: < 0.1; Relative Activity (cleavage of fluorogenic MCA substrate, release of AMC) (relative activity) (Ac-Arg-Ser-Val-Leu-MCA): < 0.1; Relative Activity (cleavage of fluorogenic MCA substrate, release of AMC) (relative activity) [4]: < 0.1; Relative Activity (cleavage of fluorogenic MCA substrate, release of AMC) (relative activity) (Boc-Arg-Val-Arg-Arg-MCA): < 0.1; Relative Activity (cleavage of fluorogenic MCA substrate, release of AMC) (relative activity) [5]: < 0.1"
